{"source": "patent US20170192014A1", "about": "(PDL BIOPHARMA, published 2017)", "key": {"[1]": {"biological_target": "T1, biotin conjugated CK18 peptide ^240PKSQDLAKI (human, also: biotin conjugated)", "T1 peptide": "PKSQDLAKI", "assay": "ECL assay, hybridoma supernatant on biotin peptide on streptavidin beads", "from_the_text": "(§1) Caspases 3 and 6 generated three CK18 protein fragments having the sequences M1-D238 (SEQ ID NO:4), A239-D397 and 5398-H430. A monoclonal antibody specific for the carboxy terminus of human caspase-cleaved cytokeratin CK18 protein fragment having amino acids M1-D238 (SEQ ID NO:4) was generated by immunizing mice with a short peptide sequence of ²²⁹[…] (SEQ ID NO:1) (designated as peptide P1 for the Examples). Mouse sera were screened for a positive response to peptide P1. Splenocytes from mice with a positive response were fused with myeloma cells and cell culture fluid from the resulting hybridomas screened against peptide P1. Supernatant from hybridoma cells producing antibody with a positive response to peptide P1 were further screened by an electrochemiluminescence (ECL) assay against biotin conjugated peptides ²³⁹[…] (SEQ ID NO:10), ²⁴⁰[…] (SEQ ID NO:11), ²²⁹[…] (SEQ ID NO:1) and ²²⁹[…] (SEQ ID NO:12), which were each bound to streptavidin coated paramagnetic beads. Peptides ²²⁹[…] (SEQ ID NO:1) and ²²⁹[…] (SEQ ID NO:12) represent the amino acid sequences A229-D238 and A229-V237 of cytokeratin 18 protein while peptides ²³⁹[…] (SEQ ID NO:10) and ²⁴⁰[…] (SEQ ID NO:11) represent the amino acid sequences A239-1248 and K240-1248 of cytokeratin 18."}, "[2]": {"biological_target": "T2, biotin conjugated CK18 peptide ^239APKSQDLAKI (A239-I248) (human, also: biotin conjugated)", "T2 peptide": "APKSQDLAKI", "assay": "ECL assay, hybridoma supernatant on biotin peptide on streptavidin beads", "from_the_text": "as §1"}, "[3]": {"biological_target": "T3, biotin conjugated CK18 peptide ^229ASSGLTVEVD (A229-D238) (human)", "T3 construct": "also called peptide P1", "T3 peptide": "Biotin-ASSGLTVEVD", "assay": "immunoassay on biotin peptides on NeutrAvidin-coated 96-well plate", "method": "(§2) The specificity of monoclonal antibody 3C2 was also assessed in an immunoassay against the peptides ²²⁹[…] (SEQ ID NO:1), ²²⁹[…] (SEQ ID NO:12) and ³⁸⁸[…] (SEQ ID NO:13) (each conjugated with biotin at their amino-terminus), which were added to a 96-well microplate coated with NeutrAvidin® by Invitrogen™. Human cytokeratin 18 protein fragment A239-D397 was also produced by the action of caspase 3 during cellular apoptosis and ends in the sequence ³⁹⁴DALD (SEQ ID NO:9). These peptides were incubated with mAb 3C2, M30 antibody (Enzo Life Sciences®, ALX-804-590) or other unrelated mAbs."}, "[4]": {"biological_target": "T4, biotin conjugated CK18 peptide ^229ASSGLTVEV (A229-V237) (human)", "T4 peptide": "Biotin-ASSGLTVEV", "assay": "immunoassay on biotin peptides on NeutrAvidin-coated 96-well plate", "method": "as §2"}, "[5]": {"biological_target": "T5, biotin conjugated CK18 peptide ^388EDFNLGDALD (human)", "T5 peptide": "Biotin-EDFNLGDALD", "assay": "immunoassay on biotin peptides on NeutrAvidin-coated 96-well plate", "method": "as §2"}, "[6]": {"biological_target": "T6, full length recombinant cytokeratin 18 protein (rCK18) (human, UniProt P05783 1-430)", "T6 construct": "The exact recombinant construct, including any tags, is not described; also called recombinant full length CK18 protein; full-length (untreated) CK18", "T6 sequence": "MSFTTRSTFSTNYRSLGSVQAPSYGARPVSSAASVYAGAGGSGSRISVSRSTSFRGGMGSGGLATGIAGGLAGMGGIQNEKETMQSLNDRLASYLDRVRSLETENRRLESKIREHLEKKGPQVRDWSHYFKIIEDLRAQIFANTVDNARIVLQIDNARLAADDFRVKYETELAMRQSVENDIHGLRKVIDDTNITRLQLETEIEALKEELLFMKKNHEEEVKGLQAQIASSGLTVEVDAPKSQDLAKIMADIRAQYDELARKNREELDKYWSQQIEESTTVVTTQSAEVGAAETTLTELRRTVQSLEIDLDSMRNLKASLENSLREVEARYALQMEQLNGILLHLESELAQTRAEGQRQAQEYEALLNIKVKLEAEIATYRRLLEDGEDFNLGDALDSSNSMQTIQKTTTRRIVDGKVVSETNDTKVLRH", "assay": "Western blot", "method": "(§3) FIG. 4 is a photographic reproduction of a Western Blot Analysis using the mAb 3C2 (Lane 1, marker proteins; Lane 2, blank; Lane 3, 1 μg recombinant full length CK18 protein (rCK18); Lane 4, 12 μL of SK-BR3 apoptotic cell supernatant; Lane 5, 12 μL of SK-BR3 cell supernatant). Proteins were run in a 14% Tris/Glycine gel. The concentrations for the test material were 1 μg of rCK18 and 12 μL of SK-BR-3 apoptotic supernatant and SK-BR-3 Cell Lysate. The proteins were run at 150 V constant until the dye front reached the end of the gel. The proteins were then transferred to nitrocellulose. The nitrocellulose was blocked and probed with the 3C2 mAb at 1 μg/mL for 60 minutes. The membrane was washed three times and probed with a goat anti-mouse IgG ALK for 30 minutes. The membrane was washed three times and developed with using a WesternBreeze® kit from Invitrogen™ (Cat # WB7104)."}, "[7]": {"biological_target": "T7, human CK18 protein fragment M1-D238 from apoptotic SK-BR3 cells (human, UniProt P05783 1-238)", "T7 construct": "Endogenous fragment in the supernatant or lysate of SK-BR-3 cells induced to become apoptotic; also called fragment B; caspase-cleaved CK18 fragment", "T7 sequence": "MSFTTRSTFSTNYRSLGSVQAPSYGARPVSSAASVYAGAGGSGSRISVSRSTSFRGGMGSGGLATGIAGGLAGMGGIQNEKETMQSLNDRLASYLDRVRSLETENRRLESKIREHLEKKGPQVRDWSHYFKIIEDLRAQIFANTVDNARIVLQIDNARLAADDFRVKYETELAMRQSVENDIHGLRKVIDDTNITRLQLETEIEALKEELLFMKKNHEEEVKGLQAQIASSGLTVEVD", "assay": "Western blot", "method": "as §3"}, "[8]": {"biological_target": "T8, full length CK18 from a cell extract of SK-BR-3 cells (human, UniProt P05783 1-430)", "T8 construct": "Endogenous CK18 of the human breast cancer cell line SK-BR-3, seen on a Western blot; also called SK-BR3 cell supernatant (lane 5)", "T8 sequence": "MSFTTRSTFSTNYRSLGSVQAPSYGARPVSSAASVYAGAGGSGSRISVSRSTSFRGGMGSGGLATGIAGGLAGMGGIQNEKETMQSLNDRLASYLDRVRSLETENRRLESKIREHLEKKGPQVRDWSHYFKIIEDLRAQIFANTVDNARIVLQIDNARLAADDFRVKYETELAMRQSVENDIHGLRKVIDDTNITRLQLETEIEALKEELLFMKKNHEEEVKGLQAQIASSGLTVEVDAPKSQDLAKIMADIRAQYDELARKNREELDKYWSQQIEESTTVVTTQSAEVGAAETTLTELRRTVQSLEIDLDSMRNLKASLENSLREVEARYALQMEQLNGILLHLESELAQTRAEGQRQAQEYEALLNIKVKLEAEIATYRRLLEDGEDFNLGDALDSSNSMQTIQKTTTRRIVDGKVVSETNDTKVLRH", "assay": "Western blot", "method": "as §3"}, "[9]": {"biological_target": "T9, recombinant human CK18 protein fragment B (rCK18fB) (human, UniProt P05783 1-238)", "T9 construct": "also called recombinant CK-18 fragment B protein", "T9 sequence": "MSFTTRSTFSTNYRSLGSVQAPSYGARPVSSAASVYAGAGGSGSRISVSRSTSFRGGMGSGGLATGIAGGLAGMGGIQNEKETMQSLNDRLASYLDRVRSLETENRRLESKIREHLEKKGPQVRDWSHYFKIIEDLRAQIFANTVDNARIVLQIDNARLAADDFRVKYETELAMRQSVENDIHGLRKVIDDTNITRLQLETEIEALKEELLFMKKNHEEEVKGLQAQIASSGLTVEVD", "assay": "sandwich ECL assay, capture biotin-3C2 on streptavidin beads, detector TAG-C-04, in normal human serum", "method": "A recombinant human CK18 protein fragment B (rCK18fB) was prepared using standard procedures. An immunoassay consisted of incubating 50 μL rCK18fB (0, 206, 617, 1852, 5557, 16667, 50,000 and 100,000 U/L) spiked into normal human serum with 50 μL of reaction mix consisting of biotinylated mAb 3C2/streptavidin coated paramagnetic beads and anti-CK18 TAG labeled antibody C-04 for 60 minutes at room temperature with shaking. The bead complex was washed twice, suspended in buffer and read on an ECL analyzer. The results shown in FIG. 6, a representative standard curve, indicate rCK18fB is detectable over a range of 0-100,000 U/L (1 U/L=1000 pg=0.037 pM)."}}, "note": "Ends that are not written are not given here. * marks the point of attachment. Biotin = O=C1N[C@H]2[C@H](CS[C@H]2CCCCC(=O)*)N1"}
{"binder": "monoclonal antibody 3C2 (antibody, V domains shown, Mouse hybridoma monoclonal antibody, detected with goat anti-mouse IgG; also called mAb 3C2; anti-VEVD mAb) VH: DVQLVESGGGLVQPGGSRKLSCAASGFTFSSFGMHWVRQAPEKGLEWVAYINGGSTIIYYADTVKGRFTVSRDNPKNTLFLQMTSLRSDDTAMYFCVRRTPTAAGGAMDYWGQGTSVTVSS VL: NIMVTQSPSSLAVSAGEKVTMTCKSSQSLFYSSNQKNYLAWFQQKPGQSPKLLIYWASTRESGVADRFTGSGYGTDFTLTISSVQAEDLAVYYCQQYLSSWTFGGGTKVEIK", "values": [{"measurement": "binding result", "setting": "[1]", "result": "no binding"}, {"measurement": "binding result", "setting": "[2]", "result": "no binding"}, {"measurement": "binding result", "setting": "[3]", "result": "binds"}, {"measurement": "binding result", "setting": "[4]", "result": "no binding"}, {"measurement": "binding result", "setting": "[5]", "result": "no binding"}, {"measurement": "binding result", "setting": "[6]", "result": "no binding (tested: 3C2 mAb at 1 µg/mL; 1 µg of rCK18)"}, {"measurement": "binding result", "setting": "[7]", "result": "binds"}, {"measurement": "binding result", "setting": "[8]", "result": "no binding"}, {"measurement": "binding result", "setting": "[9]", "result": "binds"}]}
